Results taken from patent US20100143888.

Biological target: T1, MOC-Arg-Ala-Glu-Leu-Gln-Gly-Pro-Tyr-Asp-Lys-DNP-NH2
T1 chain: RAELQGPYDK

B1: Human Rhinovirus serotype 1A 3C Protease (protein)
chain: GPEEEFGRSILKNNTCVITTGNGKFTGLGIHDRILIIPTHADPGREVQVNGVHTKVLDSYDLYNRDGVKLEITVIQLDRNEKFRDIRKYIPETEDDYPECNLALSANQDEPTIIKVGDVVSYGNILLSGNQTARMLKYNYPTKSGYCGGVLYKIGQILGIHVGGNGRDGFSAMLLRSYFTDTQ
Km (fluorescence resonance energy transfer protease activity assay): with a Km value of 16.8 µM
